Values of other authors, collected in paper PMC4716630.
pKd: −log10 of the molar value.

Target: hMSH2 (Homo sapiens) (UniProt P43246)
Sequence (P43246 2-934): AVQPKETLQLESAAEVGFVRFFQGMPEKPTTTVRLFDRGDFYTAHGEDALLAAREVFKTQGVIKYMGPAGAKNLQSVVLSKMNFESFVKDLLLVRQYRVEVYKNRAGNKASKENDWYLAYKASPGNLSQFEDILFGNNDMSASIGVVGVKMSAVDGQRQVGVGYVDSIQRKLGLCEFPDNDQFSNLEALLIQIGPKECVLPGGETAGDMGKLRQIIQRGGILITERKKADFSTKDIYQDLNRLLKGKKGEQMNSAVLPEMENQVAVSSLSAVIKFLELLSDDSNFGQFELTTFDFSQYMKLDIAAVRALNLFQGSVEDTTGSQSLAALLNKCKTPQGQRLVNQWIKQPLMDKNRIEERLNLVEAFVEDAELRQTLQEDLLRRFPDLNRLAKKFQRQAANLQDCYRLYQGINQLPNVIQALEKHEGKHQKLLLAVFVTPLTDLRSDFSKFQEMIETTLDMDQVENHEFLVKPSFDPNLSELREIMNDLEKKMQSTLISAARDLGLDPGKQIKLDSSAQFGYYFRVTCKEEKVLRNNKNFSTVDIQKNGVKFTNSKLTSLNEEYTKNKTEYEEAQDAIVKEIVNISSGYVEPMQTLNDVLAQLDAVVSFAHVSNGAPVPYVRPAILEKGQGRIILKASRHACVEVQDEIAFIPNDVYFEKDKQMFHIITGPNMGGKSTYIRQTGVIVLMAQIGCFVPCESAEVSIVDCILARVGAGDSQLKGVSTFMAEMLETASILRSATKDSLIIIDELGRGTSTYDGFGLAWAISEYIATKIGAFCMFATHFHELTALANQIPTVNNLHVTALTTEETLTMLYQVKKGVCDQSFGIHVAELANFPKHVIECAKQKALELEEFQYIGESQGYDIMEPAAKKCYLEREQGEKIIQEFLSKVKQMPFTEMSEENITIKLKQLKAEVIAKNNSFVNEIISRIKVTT

Sequence of NKG2D (P26718 whole entry): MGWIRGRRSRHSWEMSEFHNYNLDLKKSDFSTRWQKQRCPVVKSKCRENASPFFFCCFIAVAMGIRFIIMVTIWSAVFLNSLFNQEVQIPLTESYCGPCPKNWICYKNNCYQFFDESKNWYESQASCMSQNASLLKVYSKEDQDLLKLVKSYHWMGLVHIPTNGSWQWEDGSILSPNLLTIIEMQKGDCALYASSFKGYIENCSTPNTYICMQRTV

- pKd: 6.88
Substance: NKG2D (from UniProt P26718)
